Results on ten molecules are retold here after article PMC7019173, “Stapled peptide targeting the CDK4/Cyclin D interface combined with Abemaciclib inhibits KRAS mutant lung cancer growth” (Theranostics, 2020).

Series [1] is described as follows: circular dichroism. The conditions noted are these: 50 mM phosphate buffer; pH 7; 20 °C; 100 uM. Background: CD spectra are sensitive to the conformation of chiral molecules.
The nature of series [2]: Circular dichroism, determination of alpha helical content. The format is physicochemical. As for the experimental part: CD experiments were carried out using a Jasco J815 spectropolarimeter. Spectra were recorded with 100 μM of peptides dissolved in phosphate buffer 50 mM, pH 7, using a 1 mm pathlength CD cuvette at 20 °C, over a wavelength range of 190-260 nm. Continuous scanning mode was used, with a response of 1.0 s with 0.1 nm steps and a bandwidth of 2 nm. The signal to noise ratio was improved by acquiring each spectrum over an average of two scans. Baseline was corrected by subtracting the background from the sample spectrum.
Alpha helical content was determined using the following equation: % Helix = ([θ])obs * 100)/(-39500 * (1-2.57/n), where ([θ])obs is the mean residue ellipticity at 222 nm and n the number of peptide bonds.

Series [3] addresses C4D peptide derived from the alpha 5 helix of cyclin D1 (Homo sapiens, UniProt P24385). The series can be described thus: Fluorescence titration of TP2-Rho-labelled C4D peptide with CDK4 C helix-derived peptides. The format is binding. The conditions noted are these: 200 nM TP2-Rho labelled C4D peptide, PBS, 30 °C, average of n = 3 to 5 ± SD. As for the experimental part: TP2-Rho-labelled peptides: peptides were labelled on a unique cysteine residue with a five-fold molar excess of TP2-Rho-maleimide overnight, and then purified from free dye on NAP-5 columns (GE Healthcare), as described previously.
(§1) Fluorescence titration assays were performed in 96-well plates in a thermostated chamber (Clariostar spectrofluorimeter, BMG) at 30 °C in 200 μL phosphate buffer saline using 200 nM fluorescently-labelled peptides or proteins. The fluorescence emission intensity of TP2-Rho-labelled peptides was recorded at 614 nm following excitation at 510 nm. The fluorescence emission intensity of mant-ATP was measured at […]. Data analysis was performed using the GraFit Software (Erathicus Ltd) and curve fitting was performed using a quadratic equation, as described previously. Experiments were performed in triplicate, and Kd values represent the average calculated for n = 3 to 5 experiments, together with standard deviation.

Details of series [4]: species or system mice. The conditions noted are these: mouse, in vivo, iv.
Series [5] relates to A549 cells. The series can be described thus: cells. The settings on record: 48 hours, crystal violet, at least two independent experiments (n=4/experiment) ± SD, Grafit; read-out: IC50 A549 cell proliferation. The format is cell-based, human. How it is done: Non-small cell lung cancer A549, H358 and PC9 cell lines used in this study. Cell culture media, serum and antibiotics were purchased from Life Technologies. All cell lines were cultured in RPMI + Glutamax supplemented with 10% FCS, 100 units/mL penicillin (G sodium salt) and 100 µg/mL streptomycin at 37 °C in an atmosphere containing 5% CO2. […] Stock solutions of drugs were prepared in DMSO and freshly diluted in PBS to the desired concentration prior to use, then added onto unsynchronized cells cultured to subconfluency (60-70%), which were then further incubated for 24, 48 or 72 h. Cell proliferation was determined by crystal violet assay following treatment with drugs. Cells were washed with PBS, fixed with 3.7% formaldehyde for 10 min and then incubated with 0.1% crystal violet dye for 30 min. After rinsing, crystals were dissolved in 10% acetic acid and viability was determined by measuring absorbance at 595 nm.

Details of series [6]: species or system mice. The conditions noted are these: mouse, in vivo. As for the experimental part: Five weeks after the inoculation of H358-Luc cells, when bioluminescent orthotopic tumours were detected, nude mice were randomly divided into 6 groups. Mice were treated with vehicle (control, n = 14), Abemaciclib (n = 10), or P2-short administered intravenously (n = 10) or intrapulmonary (n = 10), or treated with a combination of Abemaciclib and P2-short (intravenous administration of P2-short, n = 10; intrapulmonary administration of P2-short, n = 10). Mice were daily orally treated for three weeks with 10 mg/kg Abemaciclib. P2-short was either administered via the tail vein three times a week for three weeks under anesthesia (isoflurane/air 4% for induction and 1.5% thereafter) with 200 μL at 0.9 mg/kg, or administered intrapulmonary two times a week for three weeks under anesthesia with 50 μL at 0.45 mg/kg. Intrapulmonary administration of P2-short was performed using a catheter connected to a FMJ-250-high-pressure syringe (Penn-Centur, Inc) and introduced into the trachea of the animals using a dedicated laryngoscope. Mice were observed and weighed three times a week. Tumour growth was followed by in vivo bioluminescence imaging (IVIS Kinetic). After 3 weeks, mice were sacrificed, and blood samples were collected by cardiac puncture for biochemistry analysis ([…]). Lungs were collected for immunohistochemistry analyses. […]

Series [7] concerns the target TP2-Rho-labelled CDK4 C helix peptide (unstapled) (human). The series can be described thus: other fluorescence titration; 200 nM TP2-Rho-labelled peptide titrated with GST-cyclins or GST; 96-well plates, 30 °C, 200 μL phosphate buffer saline; quadratic fit; average Kd of n = 3 to 5 experiments.
The target of series [8] is T1, CDK4/cyclin D1 (Homo sapiens, UniProt P11802).
T1 construct: GST (N); made in house; host or cells: E. coli
T1 sequence (P11802 whole entry): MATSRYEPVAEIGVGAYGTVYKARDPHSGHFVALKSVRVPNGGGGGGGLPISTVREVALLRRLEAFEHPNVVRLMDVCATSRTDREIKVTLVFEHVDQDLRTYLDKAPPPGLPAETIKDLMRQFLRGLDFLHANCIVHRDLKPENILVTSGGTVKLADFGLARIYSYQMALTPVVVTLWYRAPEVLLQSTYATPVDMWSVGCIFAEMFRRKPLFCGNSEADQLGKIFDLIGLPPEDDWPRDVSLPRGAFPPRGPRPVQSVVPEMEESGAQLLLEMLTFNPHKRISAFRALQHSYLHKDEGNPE
T1 sequence (P24385 whole entry partner): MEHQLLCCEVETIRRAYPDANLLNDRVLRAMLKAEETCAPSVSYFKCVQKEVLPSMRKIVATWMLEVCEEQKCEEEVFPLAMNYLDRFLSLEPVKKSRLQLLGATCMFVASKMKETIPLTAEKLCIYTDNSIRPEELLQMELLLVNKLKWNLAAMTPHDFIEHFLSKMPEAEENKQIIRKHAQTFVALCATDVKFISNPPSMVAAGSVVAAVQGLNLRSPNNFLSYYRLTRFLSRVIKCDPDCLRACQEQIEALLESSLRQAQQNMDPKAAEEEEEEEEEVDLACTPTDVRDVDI
The series can be described thus: Fluorescence titration of mant-ATP with CDK4/cyclin D1 with or without P2short. The format is binding. The settings on record: 200 nM mant-ATP. How it is done: Recombinant GST-CDK4 and GST-cyclin D1 were expressed in E. coli by IPTG induction and purified by FPLC chromatography as described previously.
as §1

Series [9] addresses T2, GST-cyclin D1 (UniProt P24385 1-295).
T2 construct: cyclin D1; also called recombinant cyclin; source: E. coli, IPTG induction, purified by FPLC chromatography
The series can be described thus: other fluorescence titration; 200 nM TP2-Rho-labelled peptide titrated with GST-cyclins or GST; 96-well plates, 30 °C, 200 μL phosphate buffer saline; quadratic fit; average Kd of n = 3 to 5 experiments. The conditions noted are these: both partners purified.

Series [10] deals with GST-cyclin E (UniProt P24864 1-410). The description is as above. The settings on record: both partners purified.
For series [11], the target named is T3, GST-cyclin Y (UniProt Q8ND76 1-341).
T3 construct: cyclin Y; source: E. coli BL21, purified (GSTrap HP, desalting column)
T3 sequence (Q8ND76 whole entry): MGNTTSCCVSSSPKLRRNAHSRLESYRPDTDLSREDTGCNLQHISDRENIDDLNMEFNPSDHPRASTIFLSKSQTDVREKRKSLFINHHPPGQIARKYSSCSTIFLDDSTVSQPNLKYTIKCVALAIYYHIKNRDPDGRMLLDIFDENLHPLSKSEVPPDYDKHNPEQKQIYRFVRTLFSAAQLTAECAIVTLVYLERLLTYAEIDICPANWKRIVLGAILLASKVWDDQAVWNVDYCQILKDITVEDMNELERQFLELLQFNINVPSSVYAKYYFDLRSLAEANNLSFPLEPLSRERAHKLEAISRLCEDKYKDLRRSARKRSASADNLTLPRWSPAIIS
The series is described as above. The conditions noted are these: both partners purified.

Series [12] concerns the target GST-cyclin A (UniProt P20248 1-432). The series is described as above. The conditions noted are these: both partners purified.

Like-named read-outs stand apart in the source and are kept apart here. Where a SMILES comes first, the peptide text is derived from it. Bridges are numbered along the chain shown (N, C = ends). [ ]: non-standard residue; d: D form. S5 = C=CCCC[C@](C)(N)C(=O)O; TP2‑Rho = not defined here

GST-cyclin D1 (from UniProt P24385 1-295) (natural protein), sequence (P24385 whole entry): as the sequence (P24385 whole entry partner) above
T2 sequence (P24385 whole entry): as the sequence (P24385 whole entry partner) above

Take `CC(=O)N[C@@H](CS)C(=O)N[C@@H](C)C(=O)N1CCC[C@H]1C(=O)N[C@@H](C)C(=O)N[C@@H](CO)C(=O)N[C@H](C(=O)N[C@@H](C)C(=O)N[C@@H](C)C(=O)N[C@@]1(C)CCCC=CCCC[C@@](C)(C(=O)N[C@@H](C)C(=O)N[C@@H](CCCNC(=N)N)C(=O)N[C@@H](CC(C)C)C(N)=O)NC(=O)[C@H](CC(C)C)NC(=O)[C@H](C)NC(=O)[C@H](CCCCN)NC1=O)[C@@H](C)O` (Ac-CAPASTAA[S5]KAL[S5]ARL-NH2; staple 9-13): the helicity in [1] worked out at 34%.
`CC[C@H](C)[C@H](NC(=O)[C@@H]1CCCN1C(=O)[C@H](CC(C)C)NC(C)=O)C(=O)N[C@@H](CO)C(=O)N[C@H](C(=O)N[C@H](C(=O)N[C@@H](CCCNC(=N)N)C(=O)N[C@@H](CCC(=O)O)C(=O)N[C@H](C(=O)N[C@@H](C)C(=O)N[C@@H](CC(C)C)C(=O)N[C@@H](CC(C)C)C(=O)N[C@@H](CCCNC(=N)N)C(=O)N[C@@H](CCCNC(=N)N)C(=O)N[C@@H](CC(C)C)C(N)=O)C(C)C)C(C)C)[C@@H](C)O` [CDK4 C peptide short] (Ac-LPISTVREVALLRRL-NH2): the helicity in series [1] was found to be 14%. The “% helix (alpha helical content)” value in series [2] (CD, 100 μM peptide in phosphate buffer 50 mM, pH 7, 20 °C, from mean residue ellipticity at 222 nm) was determined as 14%. Further, the “conformation in solution (CD)” value in series [2] (phosphate buffer) is “disordered in solution”.
`CC[C@H](C)[C@H](NC(=O)[C@@H]1CCCN1C(=O)[C@H](CC(C)C)NC(=O)CNC(C)=O)C(=O)N[C@@]1(C)CCCC=CCCC[C@@](C)(C(=O)N[C@H](C(=O)N[C@@H](C)C(=O)N[C@@H](CC(C)C)C(=O)N[C@@H](CC(C)C)C(=O)N[C@@H](CCCNC(=N)N)C(=O)N[C@@H](CCCNC(=N)N)C(=O)N[C@@H](CC(C)C)C(=O)N[C@@H](CCC(=O)O)C(=O)N[C@@H](C)C(=O)N[C@@H](Cc2ccccc2)C(=O)N[C@@H](CCC(=O)O)C(N)=O)C(C)C)NC(=O)[C@H](CCCNC(=N)N)NC(=O)[C@H](C(C)C)NC(=O)[C@H]([C@@H](C)O)NC1=O` [P1] (Ac-GLPI[S5]TVR[S5]VALLRRLEAFE-NH2; staple 5-9) showed a helicity in series [1] of 16%. In series [3], this molecule showed a Kd of 140 ± 77 nM.
The matching figures for `CC[C@H](C)[C@H](NC(=O)[C@@H]1CCCN1C(=O)[C@H](CC(C)C)NC(=O)CNC(C)=O)C(=O)N[C@@H](CO)C(=O)N[C@H](C(=O)N[C@H](C(=O)N[C@@H](CCCNC(=N)N)C(=O)N[C@@]1(C)CCCC=CCCC[C@@](C)(C(=O)N[C@@H](CCCNC(=N)N)C(=O)N[C@@H](CCCNC(=N)N)C(=O)N[C@@H](CC(C)C)C(=O)N[C@@H](CCC(=O)O)C(=O)N[C@@H](C)C(=O)N[C@@H](Cc2ccccc2)C(=O)N[C@@H](CCC(=O)O)C(N)=O)NC(=O)[C@H](CC(C)C)NC(=O)[C@H](C)NC(=O)[C@H](C(C)C)NC1=O)C(C)C)[C@@H](C)O` [P2] (Ac-GLPISTVR[S5]VAL[S5]RRLEAFE-NH2; staple 9-13): 55% and 245 ± 84 nM.
On to `CC[C@H](C)[C@H](NC(=O)[C@@H]1CCCN1C(=O)[C@H](CC(C)C)NC(=O)[C@H](C)N)C(=O)N[C@@H](CO)C(=O)N[C@H](C(=O)N[C@H](C(=O)N[C@@H](CCCNC(=N)N)C(=O)N[C@@]1(C)CCCC=CCCC[C@@](C)(C(=O)N[C@@H](CCCNC(=N)N)C(=O)N[C@@H](CCCNC(=N)N)C(=O)N[C@@H](CC(C)C)C(N)=O)NC(=O)[C@H](CC(C)C)NC(=O)[C@H](C)NC(=O)[C@H](C(C)C)NC1=O)C(C)C)[C@@H](C)O` [P2shortA] (H-ALPISTVR[S5]VAL[S5]RRL-NH2; staple 9-13), for which, in [1], the helicity came out at 74%. In [4], this molecule yielded a blood distribution half-life of 0.4 h and a blood elimination half-life of 39 h. Besides, the IC50 in series [5] came to 10800 ± 260 nM. Further, in series [6], the “lung damage by HE staining” value was “did not reveal any lung damage”.
`CC[C@H](C)[C@H](NC(=O)[C@@H]1CCCN1C(=O)[C@H](CC(C)C)NC(=O)[C@H](CS)NC(C)=O)C(=O)N[C@@H](CO)C(=O)N[C@H](C(=O)N[C@H](C(=O)N[C@@H](CCCNC(=N)N)C(=O)N[C@@]1(C)CCCC=CCCC[C@@](C)(C(=O)N[C@@H](CCCNC(=N)N)C(=O)N[C@@H](CCCNC(=N)N)C(=O)N[C@@H](CC(C)C)C(N)=O)NC(=O)[C@H](CC(C)C)NC(=O)[C@H](C)NC(=O)[C@H](C(C)C)NC1=O)C(C)C)[C@@H](C)O` [P2short] (Ac-CLPISTVR[S5]VAL[S5]RRL-NH2; staple 9-13): the helicity in [1] came to 77%. This molecule also yielded a Kd in series [3] of 56 ± 19 nM.
The like results for `CC[C@H](C)[C@H](NC(=O)[C@@H]1CCCN1C(=O)[C@H](CC(C)C)NC(=O)CNC(C)=O)C(=O)N[C@@]1(C)CCCC=CCCC[C@@](C)(C(=O)N[C@H](C(=O)N[C@@H](C)C(=O)N[C@@H](CC(C)C)C(=O)N[C@@]2(C)CCCC=CCCC[C@@](C)(C(=O)N[C@@H](C)C(=O)N[C@@H](Cc3ccccc3)C(=O)N[C@@H](CCC(=O)O)C(N)=O)NC(=O)[C@H](CC(C)C)NC(=O)[C@H](CCCNC(=N)N)NC(=O)[C@H](CCCNC(=N)N)NC2=O)C(C)C)NC(=O)[C@H](CCCNC(=N)N)NC(=O)[C@H](C(C)C)NC(=O)[C@H]([C@@H](C)O)NC1=O` [P4] (Ac-GLPI[S5]TVR[S5]VAL[S5]RRL[S5]AFE-NH2; staple 5-9, 13-17) were, in that order, 26% and 109 ± 29 nM.
In series [7], “GST-cyclin D1 (from UniProt P24385 1-295) (natural protein)” registered a Kd of 43 nM.
On to mant-ATP, for which the Kd in series [8] (P2short 2-fold excess, read-out: Kd of mant-ATP for CDK4/cyclin D1 in the presence of P2short) was 5 ± 2 nM; in series [8] (no peptide, read-out: Kd of mant-ATP for CDK4/cyclin D1 complex alone) it was 27 ± 13 nM.
On to Ac-C(TP2‑Rho)GLPISTVR[S5]VAL[S5]RRL-NH2 (staple 10-14; reading uncertain) [TP2-Rho-labelled P2short stapled peptide], for which the Kd in [9] was 12 nM; in series [10] it was 10 nM; in series [11], 47 nM; in series [12], 25 nM.
